Bridge positions count the residues as written; N and C are the ends. * marks the point of attachment. Palmitoyl = CCCCCCCCCCCCCCCC(=O)*
Assay: hLFF-peptide precipitation test (freeze-thawing)
Type: physicochemical
Conditions: 2 mM peptide in 50 mM Hepes buffer pH 8, freezing at −18° C.
Procedure: hLFF-peptides tested for precipitation by one freeze-thawing cycle (freezing at −18° C.) with hLFF peptides dissolved in 50 mM Hepes buffer pH 8 at a concentration of 2 mM.
Solutions of acylated and biacylated human lactoferrin peptides were tested for precipitation in several freeze-thaw cycles.

Substance | precipitation of peptide solution after freeze-thawing
Acetyl-NH-KCFQWQRNMRKVRGPPVSCIKR-CONH2 (Ac-KCFQWQRNMRKVRGPPVSCIKR-NH2; disulfide 2-19; listed as Homo sapiens) [C2-hLFF] | do not precipitate
palmitoyl-NH-KCFQWQRNMRKVRGPPVSCIKR-CONH2 (Palmitoyl-KCFQWQRNMRKVRGPPVSCIKR-NH2; disulfide 2-19) [C16-hLFF] | do not precipitate

From patent US11052053B2, “Nanoparticle comprising a bio-resorbable polyester, a hydrophilic polymer and an acylated human lactoferrin-derived peptide” (Evonik Operations GmbH, priority 2018, dated 2021)
